In article doi:10.1101/681668 (bioRxiv, 2019):

How the values were obtained:
Assay in all cases: pull-down
MBP-ORC1 A-A = target: T1, MBP-ORC1 A-A (human, UniProt Q13415 1-861, 235KRL237 to 235ARA237)
T1 sequence: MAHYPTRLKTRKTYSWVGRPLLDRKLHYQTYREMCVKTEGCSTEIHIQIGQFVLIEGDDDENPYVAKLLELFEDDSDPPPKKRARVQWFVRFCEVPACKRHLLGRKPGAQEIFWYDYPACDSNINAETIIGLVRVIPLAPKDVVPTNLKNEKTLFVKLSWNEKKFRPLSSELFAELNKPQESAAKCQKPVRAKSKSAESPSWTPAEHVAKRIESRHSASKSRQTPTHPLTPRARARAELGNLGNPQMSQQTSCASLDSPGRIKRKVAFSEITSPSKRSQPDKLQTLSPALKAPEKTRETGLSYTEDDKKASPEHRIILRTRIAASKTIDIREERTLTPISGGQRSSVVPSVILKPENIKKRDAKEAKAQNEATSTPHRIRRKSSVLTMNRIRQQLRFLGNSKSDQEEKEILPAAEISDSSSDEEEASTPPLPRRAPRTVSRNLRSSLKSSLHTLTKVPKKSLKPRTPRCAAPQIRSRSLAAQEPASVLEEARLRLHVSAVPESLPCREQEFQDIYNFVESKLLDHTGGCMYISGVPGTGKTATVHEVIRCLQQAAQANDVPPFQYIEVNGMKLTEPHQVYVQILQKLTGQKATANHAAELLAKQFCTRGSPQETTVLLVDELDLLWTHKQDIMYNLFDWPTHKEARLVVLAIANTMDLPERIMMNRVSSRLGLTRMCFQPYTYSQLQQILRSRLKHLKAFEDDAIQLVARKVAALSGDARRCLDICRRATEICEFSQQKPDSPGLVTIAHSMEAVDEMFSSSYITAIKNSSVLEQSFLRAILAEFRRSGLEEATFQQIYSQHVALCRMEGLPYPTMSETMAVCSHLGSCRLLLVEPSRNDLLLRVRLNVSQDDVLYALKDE

MBP-ORC1 = target: T2, MBP-ORC1 (human, UniProt Q13415 1-861)
T2 sequence: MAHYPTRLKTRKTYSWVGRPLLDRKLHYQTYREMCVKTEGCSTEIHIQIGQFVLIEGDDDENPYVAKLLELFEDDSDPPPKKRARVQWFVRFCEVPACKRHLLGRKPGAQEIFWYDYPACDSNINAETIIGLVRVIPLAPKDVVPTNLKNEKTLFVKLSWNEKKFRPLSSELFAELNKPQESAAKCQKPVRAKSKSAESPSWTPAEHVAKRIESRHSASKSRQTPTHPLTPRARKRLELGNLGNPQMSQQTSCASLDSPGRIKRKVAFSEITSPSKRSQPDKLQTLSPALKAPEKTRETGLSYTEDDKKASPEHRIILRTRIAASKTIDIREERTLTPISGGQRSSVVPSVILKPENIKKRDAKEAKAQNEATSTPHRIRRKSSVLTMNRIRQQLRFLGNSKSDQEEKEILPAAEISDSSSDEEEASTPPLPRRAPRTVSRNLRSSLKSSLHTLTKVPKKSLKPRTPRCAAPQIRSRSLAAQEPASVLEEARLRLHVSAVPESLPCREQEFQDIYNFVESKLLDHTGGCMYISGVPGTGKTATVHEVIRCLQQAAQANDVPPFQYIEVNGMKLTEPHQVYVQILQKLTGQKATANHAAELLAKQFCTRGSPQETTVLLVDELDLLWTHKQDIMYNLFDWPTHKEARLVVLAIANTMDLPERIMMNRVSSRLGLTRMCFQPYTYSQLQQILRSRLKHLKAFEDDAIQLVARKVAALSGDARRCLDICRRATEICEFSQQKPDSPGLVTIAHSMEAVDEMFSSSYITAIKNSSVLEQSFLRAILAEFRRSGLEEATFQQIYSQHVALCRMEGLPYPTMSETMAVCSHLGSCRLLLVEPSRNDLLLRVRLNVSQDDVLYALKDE

MBP-ORC1 CDK12 = target: T3, MBP-ORC1 CDK12 (human, UniProt Q13415 1-861, S258A | S273A)
T3 sequence: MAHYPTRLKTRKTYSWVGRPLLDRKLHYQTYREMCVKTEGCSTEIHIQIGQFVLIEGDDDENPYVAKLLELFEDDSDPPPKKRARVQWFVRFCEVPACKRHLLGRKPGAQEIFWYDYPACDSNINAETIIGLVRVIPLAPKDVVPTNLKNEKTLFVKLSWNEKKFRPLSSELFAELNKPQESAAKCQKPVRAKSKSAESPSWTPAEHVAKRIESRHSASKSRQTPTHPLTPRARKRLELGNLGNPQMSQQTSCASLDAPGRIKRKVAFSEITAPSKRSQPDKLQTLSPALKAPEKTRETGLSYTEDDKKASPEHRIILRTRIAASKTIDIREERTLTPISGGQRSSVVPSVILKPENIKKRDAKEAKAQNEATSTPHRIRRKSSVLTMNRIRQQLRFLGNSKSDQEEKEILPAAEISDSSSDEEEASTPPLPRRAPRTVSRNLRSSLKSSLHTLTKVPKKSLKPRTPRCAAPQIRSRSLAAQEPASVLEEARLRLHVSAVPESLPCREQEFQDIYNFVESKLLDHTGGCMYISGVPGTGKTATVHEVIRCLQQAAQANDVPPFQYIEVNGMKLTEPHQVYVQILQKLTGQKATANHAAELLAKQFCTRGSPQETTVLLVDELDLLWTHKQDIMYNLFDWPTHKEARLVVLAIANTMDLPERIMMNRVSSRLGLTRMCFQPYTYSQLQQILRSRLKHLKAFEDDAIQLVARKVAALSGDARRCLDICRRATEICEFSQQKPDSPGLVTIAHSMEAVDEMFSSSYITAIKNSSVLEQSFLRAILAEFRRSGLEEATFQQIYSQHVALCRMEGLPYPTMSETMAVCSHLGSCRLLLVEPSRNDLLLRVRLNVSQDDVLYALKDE

Measured: binding result

B1: GST-CDC6 (natural protein)
chain: MPQTRSQAQATISFPKRKLSRALNKAKNSSDAKLEPTNVQTVTCSPRVKALPLSPRKRLGDDNLCNTPHLPPCSPPKQGKKENGPPHSHTLKGRRLVFDNQLTIKSPSKRELAKVHQNKILSSVRKSQEITTNSEQRCPLKKESACVRLFKQEGTCYQQAKLVLNTAVPDRLPAREREMDVIRNFLREHICGKKAGSLYLSGAPGTGKTACLSRILQDLKKELKGFKTIMLNCMSLRTAQAVFPAIAQEICQEEVSRPAGKDMMRKLEKHMTAEKGPMIVLVLDEMDQLDSKGQDVLYTLFEWPWLSNSHLVLIGIANTLDLTDRILPRLQAREKCKPQLLNFPPYTRNQIVTILQDRLNQVSRDQVLDNAAVQFCARKVSAVSGDVRKALDVCRRAIEIVESDVKSQTILKPLSECKSPSEPLIPKRVGLIHISQVISEVDGNRMTLSQEGAQDSFPLQQKILVCSLMLLIRQLKIKEVTLGKLYEAYSKVCRKQQVAAVDQSECLSLSGLLEARGILGLKRNKETRLTKVFFKIEEKEIEHALKDKALIGNILATGLP
binds: all assays above
